Consider 1 molecule from patent publication US20250295796A1, “CELL PENETRATING POLYPEPTIDES (CPPS) AND THEIR USE IN HUMAN THERAPY” (RDP PHARMA AG, priority 2021, published 2025).

One data set deals with primary hepatocytes. The experiment in a line: SRB assay for 96 hours, primary hepatocytes. Type of data set: cell-based. Conditions: non-tumor cells primary hepatocytes, SRB 96 hours. How it is done: Cells were harvested from exponential phase cultures, and depending on the cell line 10.000 to 30.000 cells were plated in 96-well flat-bottom microtiter plates. […] Compounds were applied at 9 concentrations eight wells/concentration). At least three independent experiments were performed. For SRB staining, cells were fixed with SRB01 for 1h at 4° C. (final concentration of TCA=10%) washed with a plate washer (Hydroflex, Tecan©) for five times with H2O; and stained with 100 μl of SRB02 at room temperature for 10 min following 4 washes in SRB03 and finally 100 μl of developer solution SRB04 for 5 minutes with shaking. Optical density was assessed using a plate-reader (Sunrise, Tecan©) at 540 nm. Concentrations required for 50% inhibition of cell growth (IC50) were calculated by non-linear regression (log[conc. of inhibitor] versus response (% T/C)) using the analysis software GraphPad Prism®, Prism 5 for windows, version 5.01 (GraphPad Software Inc., CA). (SRB Buffers FIG. 25).

Another data set concerns PAXF 1657L. Description: Propidium iodide monolayer assay, PAXF 1657L. Type of data set: cell-based, human. Conditions: four days. How it is done: Monolayer Assay Propidium Iodid (PI). Cells were harvested from exponential phase cultures, counted and depending on the cell line 3.000 to 20.000 cells were plated in 96-well flat-bottom microtiter plates After a 24 h recovery period to allow cells to resume exponential growth, 10 μl of culture medium (four control wells/plate) or culture medium with the test compound were added by a liquid handling robotic system and treatment continued for four days. Compounds were applied in half-log increments at 10 concentrations in duplicate. Three independent experiments were performed. Cells were then washed with 200 μl PBS to remove dead cells followed by addition of 200 μl of a solution containing 7 μg/ml propidium iodide (PI) and 0.1% (v/v) Triton X-100. After an incubation period of 1-2 h at room temperature, fluorescence (FU) was measured using the Cytofluor 4000 microplate reader (excitation λ=530 nm, emission λ=620 nm) to quantify the amount of attached viable cells. […]
CROMOC36—in vitro activity Human pancreatic carcinoma cell lines. […] Antitumor activity was assessed after four days of CROMOC36 treatment using a propidium iodide based monolayer proliferation assay. […]

A further data set relates to HEP3B. The experiment in a line: Monolayer assay, 96h treatment, HEP3B. Type of data set: cell-based, human. The protocol: (§1) Monolayer Assay Propidium Iodid (PI). Cells were harvested from exponential phase cultures, counted and depending on the cell line 3.000 to 20.000 cells were plated in 96-well flat-bottom microtiter plates After a 24 h recovery period to allow cells to resume exponential growth, 10 μl of culture medium (four control wells/plate) or culture medium with the test compound were added by a liquid handling robotic system and treatment continued for four days. Compounds were applied in half-log increments at 10 concentrations in duplicate. Three independent experiments were performed. Cells were then washed with 200 μl PBS to remove dead cells followed by addition of 200 μl of a solution containing 7 μg/ml propidium iodide (PI) and 0.1% (v/v) Triton X-100. After an incubation period of 1-2 h at room temperature, fluorescence (FU) was measured using the Cytofluor 4000 microplate reader (excitation λ=530 nm, emission λ=620 nm) to quantify the amount of attached viable cells. Concentrations required for 50% inhibition of cell growth (IC50) were calculated by non-linear regression (log[conc. of inhibitor]versus response (% T/C)) using the analysis software GraphPad Prism®, Prism 5 for windows, version 5.01 (GraphPad Software Inc., CA).
CROMOC36—in vitro activity Human hepatocellular carcinoma cell lines IC50 values of CROMOC36 and Sorafenib, 96h treatment. […]

A short description of data set [1]: Toxicology experiments and various tumor models, cardiotoxicity. Type of data set: in vivo.
For data set [2], the system named is human colon carcinoma with null p53 (HCT116 p53−/−) xenograft. The experiment in a line: HCT116 p53-/- xenograft, CROMOC36 versus nuclease impaired CROMOC60. Particulars: s.c. 4 mg/kg on days 0, 1, 2, 3, 6, 7, 8, 9, 10, 20, 22, 24. Type of data set: in vivo, mouse. How it is done:
FIG. 7: HCT116 p53−/− human colon carcinoma xenograft. Treatment on advanced tumors (volume >50 mm^3). Dose: CROMOC36 4 mg/kg; CROMOC60 4 mg/kg. Treatment: s.c. administration on day 0, 1, 2, 3, 6, 7, 8, 9, 10, 20, 22, 24.
A study was conducted to test the antitumor efficacy of CROMOC36 on an advanced human colon carcinoma with null p53 (HCT116 p53−/−) xenograft model and compare it to a vehicle or a nuclease impaired version CROMOC60 treatment group. CROMOC60 is no more catalytically active as a nuclease but is able to be transported to the nucleus of a cell. This study was also designed to proof that the active principle of the tumor growth inhibiting activity of CROMOC is the nuclease activity in vivo. CROMOC36 and CROMOC60 were both administered subcutaneously (s.c.) at 4 mg/kg dose on the days 0, 1, 2, 3, 6, 7, 8, 9, 10, 20, 22, 24. […] This also proofs that CROMOC36 can serve as a valid DNA DSB reagent.

For data set [3], the system named is HCT116 human colon carcinoma xenograft with null p53 (HCT116 p53−/−). Description: HCT116 p53-/- xenograft, single agent and combination with cisplatin or vincristine. Type of data set: in vivo, female athymic nude mice. How it is done:
A study was conducted to evaluate the efficacy and tolerability of CROMOC36 against an HCT116 human colon carcinoma xenograft model with null p53 (HCT116 p53−/−) in female athymic nude mice. CROMOC36 was administered subcutaneously (s.c.) three times at intervals of two weeks (q14dx3) as a single agent or in combination with cisplatin (CDDP) at 4 mg/kg or vincristine (VCR) at 2 mg/kg which were both administered five times at intervals of one week (q7dx5). CROMOC36 was tested at 32 mg/kg or using a decreasing dosage of 32-16-16 mg/kg. CDDP and VCR were also administered as single agents to allow comparison of the efficacy of CROMOC36 with commonly used anticancer drugs. The dose and schedule of CDDP and VCR treatments remained the same when tested as single agents or in combination with CROMOC36. […] Efficacy was also evaluated by measuring the tumor growth delay (TGD) and the number of regression responses.

For data set [4], the system named is Human hepatocellular carcinoma cell lines. The experiment in a line: Monolayer assay, human hepatocellular carcinoma cell lines, 96h treatment (geomean of three lines). Type of data set: cell-based. How it is done: as §1
CROMOC36—in vitro activity Human hepatocellular carcinoma cell lines IC50 values of CROMOC36 and Sorafenib, 96h treatment. […] The individual results for CROMOC36 are included in FIG. 24. […] The individual results for Sorafenib are included in (FIG. 24).

B1: CROMOC36: single chain PvuII endonuclease fused at its C-terminus to DDM36, PEGylated final product used in the Examples (protein)
chain: MSHPDLNKLLELWPHIQEYQDLALKHGINDIFQDNGGKLLQVLLITGLTVLPGREGNDAVDNAGQEYELKSINIDLTKGFSTHHHMNPVIIAKYRQVPWIFAIYRGIAIEAIYRLEPKDLEFYYDKWERKWYSDGHKDINNPKIPVKYVMEHGTKIYGSGGSGGSSHPDLNKLLELWPHIQEYQDLALKHGINDIFQDNGGKLLQVLLITGLTVLPGREGNDAVDNAGQEYELKSINIDLTKGFSTHHHMNPVIIAKYRQVPWIFAIYRGIAIEAIYRLEPKDLEFYYDKWERKWYSDGHKDINNPKIPVKYVMEHGTKIYGNSGSGKKKKKGKGSGLGSGKKKDPLGSGLGSGKKKKKGKGSGLGSGKKKDPLGST
modifications: PEGylated; peptide, CROMOC36
In general, IC50 refers to the point on the concentration scale where inhibition reaches its midpoint. Consider B1, for which the IC50 with primary hepatocytes was above 10000 nM; in the data set with PAXF 1657L, 4.73 nM; with HEP3B, 12.2 nM; in data set [4] (three HCC cell lines, 96h treatment) it was 14.1 nM. The cardiotoxic effects entry in data set [1] is “no cardiotoxic effects were observed”. In addition, in data set [2], the “progression of HCT116 p53−/− human colon carcinoma as compared to vehicle control” value was “significantly inhibited”. Moreover, the tumor growth inhibition is given as 82.9% in data set [3] (CROMOC36 32 mg/kg s.c. q14dx3, single agent) and 91.6% in data set [3] (CROMOC36 decreasing 32-16-16 mg/kg s.c. q14dx3, single agent). In addition, in data set [3] (CROMOC36 32-16-16 mg/kg), the partial regression response entry is on record as “one”. In addition, the tumor-free survivor result in data set [3] (CROMOC36 32-16-16 mg/kg) is listed as “one”. For the same molecule, the “tumor growth inhibition with respect to single-agent CROMOC36” value in data set [3] (CROMOC36 32-16-16 mg/kg in combination with CDDP or VCR) was “did not change significantly”. The “persistence of inhibitory effect” value in data set [3] (CROMOC36 32-16-16 mg/kg, single agent or in combination with CDDP or VCR, three weeks after the last treatment) was “persisted until day 50”. Further, the “% TGD (tumor growth delay)” value in data set [3] (endpoint tumor volume of 1000 mm^3, CROMOC36 as single agent or in combination) is on record as above 117%. Moreover, in data set [3] (endpoint tumor volume of 1000 mm^3, control Day 23, CROMOC36 as single agent or in combination), the “time to study endpoint (TTE)” value is reported as above 50 days. In addition, in data set [4] (geomean IC50 of three HCC cell lines), the “potency compared to Sorafenib” value is given as “over 300 fold”.
